According to patent US20230174663A1 (MEDABOME, published 2023):
Several values for one entry are separate records, joined by “and”; a condition that tells them apart may be missing. Equal values may be shown once.

Experiments:
[1] = target: T1, human TfR1-GFP fusion protein (rTfR1-GFP) expressed on the membrane of CHO-DG44 cells (human, UniProt P02786 1-760); experiment: FACS titration on CHO/rTfR1-GFP cells
T1 construct: whole, on cells; also called CHO/rTfR1-GFP cells; CHO/rTfR-GFP cells; not shown: GFP (also called EGFP) fused in frame to the C-terminus
From the text: The cDNA was in-frame fused with a GFP-coding DNA fragment to its C-terminus and then cloned into an in-house expression vector containing the human CMV promoter and a puromycin resistant gene (PuroR) for selection. […] CHO cell colonies stably expressing high-level EGFP were isolated and subcloned.

[2] = target: T2, recombinantly expressed human TfR1 extracellular domain with a His tag (rTfR1-ECD, ACRO Biosystems) (human, UniProt P02786 89-760); experiment: BLI (Octet QK), mAb captured on anti-mouse Fc (AMC) biosensors, rTfR1-ECD in solution
T2 construct: extracellular domain; Bought reagent; also called 6His-tagged rTfR1-ECD; extracellular domain of TfR1

[3] = target: T2, recombinantly expressed human TfR1 …; experiment: direct ELISA, plate coated with 0.1 µg/mL rTfR1-ECD, detection anti-mouse IgG Fc-HRP
Description: The plate was coated with 0.1 μg/mL of purified rTfR1-ECD containing a C-terminal 6×His tag. A mouse anti-6×His mAb and an isotype control Ab were used as positive and negative controls, respectively. All the primary antibodies were in 3-fold serial dilutions with a starting concentration of 3 μg/mL. Peroxidase AffiniPure Goat Anti-Mouse IgG Fey at 1:6,000 dilution was used for detection.
3,3′,5,5′-Tetramethylbenzidine (TMB) substrate was added and absorbance at 450 nm of wavelength was measured using a SpectraMax microplate reader (Molecular Device, San Jose, Calif.).

[4] = target: T2, recombinantly expressed human TfR1 …; experiment: BLI (Octet QK), 10 nM mAb loaded on anti-mouse Fc sensors; same value printed in the rows 20, 8, 3.2 and 1.28 nM rTfR1-ECD; koff Error blank
[5] = target: T2, recombinantly expressed human TfR1 …; experiment: BLI (Octet QK), 50 nM mAb loaded on anti-mouse Fc sensors; same value printed in the rows 20, 8, 3.2 and 1.28 nM rTfR1-ECD; koff Error blank
[6] = target: T2, recombinantly expressed human TfR1 …; experiment: BLI (Octet QK), 10 nM mAb loaded on anti-mouse Fc sensors; same value printed in the rows 20, 8, 3.2 and 1.28 nM rTfR1-ECD; kon Error 2.12E+04, Full R^2 0.989
[7] = target: T2, recombinantly expressed human TfR1 …; experiment: BLI (Octet QK), 50 nM mAb loaded on anti-mouse Fc sensors; same value printed in the rows 20, 8, 3.2 and 1.28 nM rTfR1-ECD; kon Error 9.80E+03, Full R^2 0.9909
[8] = target: T2, recombinantly expressed human TfR1 …; experiment: BLI (Octet QK), cAb captured on anti-human Fc (AHC) biosensors, rTfR1-ECD 50 nM to 1.28 nM in solution
Description: (§1) Concentrations of rTfR1-ECD ranged from 50 nM to 1.28 nM by 2.5-fold serial dilutions.

[9] = target: T2, recombinantly expressed human TfR1 …; experiment: BLI (Octet QK), 10 nM cAb loaded on anti-human Fc sensors; same value printed in the rows 50, 20, 8, 3.2 and 1.28 nM rTfR1-ECD; koff Error blank
Description: as §1

[10] = target: T2, recombinantly expressed human TfR1 …; experiment: BLI (Octet QK), 50 nM cAb loaded on anti-human Fc sensors; same value printed in the rows 50, 20, 8, 3.2 and 1.28 nM rTfR1-ECD; koff Error blank
Description: as §1

[11] = target: T2, recombinantly expressed human TfR1 …; experiment: BLI (Octet QK), 10 nM cAb loaded on anti-human Fc sensors; same value printed in the rows 50, 20, 8, 3.2 and 1.28 nM rTfR1-ECD; kon Error 5.18E+03, Full R^2 0.9885
Description: as §1

[12] = target: T2, recombinantly expressed human TfR1 …; experiment: BLI (Octet QK), 50 nM cAb loaded on anti-human Fc sensors; same value printed in the rows 50, 20, 8, 3.2 and 1.28 nM rTfR1-ECD; kon Error 2.34E+03, Full R^2 0.9963
Description: as §1

T1 sequence (P02786 whole entry, the tested form may be a part): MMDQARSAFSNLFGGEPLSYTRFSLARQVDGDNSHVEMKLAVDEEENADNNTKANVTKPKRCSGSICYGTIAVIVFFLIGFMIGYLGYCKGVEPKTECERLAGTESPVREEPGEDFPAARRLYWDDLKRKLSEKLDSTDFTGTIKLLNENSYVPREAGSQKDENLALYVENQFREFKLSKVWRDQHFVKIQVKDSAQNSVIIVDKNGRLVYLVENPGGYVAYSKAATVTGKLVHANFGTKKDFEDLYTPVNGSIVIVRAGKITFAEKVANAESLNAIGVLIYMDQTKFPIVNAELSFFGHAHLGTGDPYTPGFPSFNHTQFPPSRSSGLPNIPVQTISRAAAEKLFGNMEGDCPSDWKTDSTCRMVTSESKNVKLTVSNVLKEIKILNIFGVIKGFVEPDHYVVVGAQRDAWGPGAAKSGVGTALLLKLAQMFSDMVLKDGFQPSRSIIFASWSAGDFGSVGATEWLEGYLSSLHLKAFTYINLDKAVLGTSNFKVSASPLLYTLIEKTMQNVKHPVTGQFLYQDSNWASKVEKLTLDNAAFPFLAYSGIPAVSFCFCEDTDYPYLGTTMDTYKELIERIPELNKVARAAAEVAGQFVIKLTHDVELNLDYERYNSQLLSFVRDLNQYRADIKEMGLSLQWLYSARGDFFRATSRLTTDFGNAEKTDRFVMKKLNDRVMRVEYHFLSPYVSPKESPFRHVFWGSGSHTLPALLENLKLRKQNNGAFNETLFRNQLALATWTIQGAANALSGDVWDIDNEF
T2 sequence (P02786 other isoform, or with tags, fused parts or gaps): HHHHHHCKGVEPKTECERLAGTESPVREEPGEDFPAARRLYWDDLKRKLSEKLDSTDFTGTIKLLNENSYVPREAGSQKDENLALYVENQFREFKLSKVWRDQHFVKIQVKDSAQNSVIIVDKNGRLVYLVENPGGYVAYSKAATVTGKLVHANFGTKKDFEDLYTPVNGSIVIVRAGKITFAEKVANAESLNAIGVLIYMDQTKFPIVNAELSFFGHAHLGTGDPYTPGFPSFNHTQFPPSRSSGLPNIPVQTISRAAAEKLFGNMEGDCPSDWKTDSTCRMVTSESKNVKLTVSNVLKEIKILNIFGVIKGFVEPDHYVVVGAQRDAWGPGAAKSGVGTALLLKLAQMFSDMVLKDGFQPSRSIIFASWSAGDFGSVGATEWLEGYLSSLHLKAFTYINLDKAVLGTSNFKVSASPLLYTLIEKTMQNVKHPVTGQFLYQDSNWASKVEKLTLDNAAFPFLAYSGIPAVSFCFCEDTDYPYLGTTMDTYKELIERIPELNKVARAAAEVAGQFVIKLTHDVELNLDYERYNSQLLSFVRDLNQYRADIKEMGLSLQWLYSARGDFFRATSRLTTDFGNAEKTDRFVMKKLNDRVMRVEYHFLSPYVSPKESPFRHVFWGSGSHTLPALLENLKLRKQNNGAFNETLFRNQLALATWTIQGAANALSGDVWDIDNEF

IC50 [1]	Kd [2] [pM]	EC50 (read off the curve) [3] [µg/mL]	koff [4] [s⁻¹]	koff [5] [s⁻¹]	kon [6] [M⁻¹ s⁻¹]	kon [7] [M⁻¹ s⁻¹]	Kd [8] [pM]	koff [9] [s⁻¹]	koff [10] [s⁻¹]	kon [11] [M⁻¹ s⁻¹]	kon [12] [M⁻¹ s⁻¹]	Binder
0.03 µg/mL and 0.04 µg/mL	< 1	~0.04	< 1e-07	< 1e-07	1.16e+06	604000	–	–	–	–	–	MAb11-22.1 mAb (antibody, IgG1, V domains shown, Mouse hybridoma antibody, IgG1/kappa; both are kept under this molecule) VH: EVQLQQSGPELVKPGASVRISCKTSGYTFTNYYIHWMKQRPGQGLEWIGWIYPGDGNSHYNEKFKGKTTLTADKSSSTGYILLSSLTSEDSAVYFCTRDYDNYGGFAYWGQGTLVTVSA VL: IVMTQSPSSLTVTAGEKVTMSCKSSQSLLNSGNQKNYLTWYQQKPGQPPKLLIYWASTWESRVPDHFTGSGSGTDFTLTISSVQAEDLAVYYCQNDYSYPLTFGAGTKLELKR
–	–	–	–	–	–	–	< 1	< 1e-07	< 1e-07	244000	196000	MAb11-22.1 chimeric Ab (cAb) (antibody, V domains shown, not shown: constant region of human IgG1 heavy chain (CH1-CH3); constant region of human kappa light chain (CL)) VH: EVQLQQSGPELVKPGASVRISCKTSGYTFTNYYIHWMKQRPGQGLEWIGWIYPGDGNSHYNEKFKGKTTLTADKSSSTGYILLSSLTSEDSAVYFCTRDYDNYGGFAYWGQGTLVTVSA VL: IVMTQSPSSLTVTAGEKVTMSCKSSQSLLNSGNQKNYLTWYQQKPGQPPKLLIYWASTWESRVPDHFTGSGSGTDFTLTISSVQAEDLAVYYCQNDYSYPLTFGAGTKLELKR
~0.1 µg/mL	–	–	–	–	–	–	–	–	–	–	–	anti-human TfR1 control mAb (R&D Systems) (antibody, V domains shown) VH: QVQLQQSGPELVKPGASVKMSCKASGYTFTNYYIHWVKQRPGQGLEWIGWIYPGDGSTKYNEKFKGKTTLTADKSSSTAYMLLSSLTSEDSAIYFCARDGSSAPKFTYWGQGTLVTVSA VL: DIVMTQSPSSLTVTAGEKVTMRCKSSQSLLNSGNQKNYLTWYQQKPGQPPKLLIYWASTRESGVPDRFTGSGSGTDFTLTISSVQAEDLAVYYCQNDYSYPLTFGAGTKLELK
